According to the supplement of paper PMC10724198:
± gives the standard deviation of the averaged measurements.

test system: Saccharomyces cerevisiae; assay: protein stability index of tFT-peptide fusion (C-terminal peptide) (PSI (0-1 scale)); higher = more stable (slower turnover); conditions: genetic background: wild type; temperature: 30 C
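Further: PSI is a weighted mean of sequencing reads over stability bins, variants kept only with over 10 reads, mCherry proximal and sfGFP distal, peptide attached via GGGS linker.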

Sequence	protein stability index
LVFRPVPVIFGL	0.635 ± 0.017
LVFSTLGSCFDG	0.685 ± 0.0099
LVGFGGGGDGVV	0.693 ± 0.032
LVGGGDRPGLGR	0.66 ± 0.0079
LVGHENIVVRRA	0.72 ± 0.011
LVGQVKYMIKEQ	0.684 ± 0.028
LVGSSYGRTDML	0.715 ± 0.016
LVLDCPISEVLL	0.6403 ± 0.0055
LVLLPSASPLLL	0.71 ± 0.044
LVLVRPGSVSPE	0.731 ± 0.018
LVLYPFPPLHST	0.6749 ± 0.0053
LVPTQGDFVVLL	0.721 ± 0.053
LVRCGLGASVVV	0.651 ± 0.041
LVRGGHRLSFRL	0.732 ± 0.015
LVSGASHWPSYT	0.694 ± 0.014
LVSPLARLGLMI	0.787 ± 0.05
LVSPPTPPPFPP	0.702 ± 0.059
LVSSSPLPFSPI	0.646 ± 0.079
LVYLASGMYRFV	0.607 ± 0.02
LWAGGVAVAVSR	0.638 ± 0.045
LWCDPVLVLELR	0.776 ± 0.072
LWCWVGGALCGG	0.742 ± 0.17
LWGIAGSGVLVG	0.635 ± 0.0069

Sequence	protein stability index
LWQGGRAFWQPV	0.679 ± 0.046
LWVGGVGRVRGV	0.69144 ± 0.00047
LWVGVVGRVRGV	0.6609 ± 0.0062
LYGASRCLVARS	0.664 ± 0.0093
LYICNYFKFKKR	0.7096 ± 0.0069
LYIRHPPSAPLP	0.808 ± 0.13
LYKEQRNNCGKI	0.662 ± 0.021
LYLCFDVVKDLG	0.582 ± 0.015
LYPRPSRFPPLL	0.732 ± 0.087
LYRPFTAVPPSI	0.816 ± 0.082
LYTISAGEDELN	0.699 ± 0.018
LYTSPLPAAFQL	0.726 ± 0.038
LYYSEKRIKNVN	0.643 ± 0.077
MAEAVVLDPDMV	0.6831 ± 0.0055
MCCSVGGLFFFF	0.649 ± 0.04
MCFLSCCSFRFC	0.6162 ± 0.0044
MCVSSSAGVRQE	0.638 ± 0.054
MDGRVMAETCRA	0.585 ± 0.038
MDHSGYWDISCG	0.801 ± 0.099
MDIVIGSQTEAN	0.7365 ± 0.0036
MERAGTAEGGGA	0.655 ± 0.008
MGAGGGLCGMWA	0.705 ± 0.054
MGGGGGLCGMWA	0.723 ± 0.021

Sequence	protein stability index
MGHLFIPSQSQS	0.715 ± 0.048
MGKNDSITPELA	0.712 ± 0.029
MGVGCFCCLFVG	0.541 ± 0.011
MHGVSSGSSLVN	0.63 ± 0.038
MIASGGGGEAAY	0.742 ± 0.081
MIGWQADSINKI	0.783 ± 0.022
MISIKNEKKKYT	0.685 ± 0.069
MITQVIKRRKRK	0.688 ± 0.041
MKLWSDALNVVR	0.607 ± 0.12
MKRIRKTKIKAR	0.624 ± 0.074
MKRQQENNAPGR	0.616 ± 0.018
MLGHKIILHTYI	0.54735 ± 0.00019
MLRSGDFSSPPN	0.694 ± 0.042
MNRKEREKKRIK	0.697 ± 0.023
MNVPRQLISRFV	0.683 ± 0.064
MPHLARVREVVH	0.6178 ± 0.0026
MQNDKCWVCNQR	0.693 ± 0.029
MRIKSMLHHSKV	0.66213 ± 0.00021
MRIMERWVMGGG	0.795 ± 0.16
MSLLCPSPPFPT	0.695 ± 0.068
MSWSVSDIADDS	0.657 ± 0.0075
MTSSYLCWDVIG	0.632 ± 0.071
MVRNCPYSLSFL	0.734 ± 0.07

Sequence	protein stability index
MVRWGLGRVYGC	0.786 ± 0.1
MVSSIESHIVLY	0.66 ± 0.0078
MYPFKYGFASWV	0.583 ± 0.016
NALFDLAVMCLD	0.664 ± 0.028
NALLHPRSHLAF	0.686 ± 0.033
NCSPLCLRVASS	0.647 ± 0.029
NDGKTKRVKKRR	0.619 ± 0.065
NDQWKKENRGKK	0.737 ± 0.013
NEQGTIIKRYKK	0.737 ± 0.045
NESCRNREPGHV	0.664 ± 0.1
NESSYGNEKNLG	0.723 ± 0.021
NFATLFSLCCLY	0.611 ± 0.011
NFFTLTRCTLFI	0.66684 ± 0.00029
NFMTEGYFWRGE	0.767 ± 0.0087
NFPEATPSNYKV	0.737 ± 0.015
NFYKKLSNKMGQ	0.662 ± 0.039
NGDPRVHTAVAR	0.704 ± 0.054
NGGGMPDRVVSI	0.722 ± 0.024
NGQVAGVGNVAW	0.678 ± 0.015
NGSAYEGRDYAN	0.626 ± 0.02
NICLPLAHRTPG	0.655 ± 0.017
NIHRKLIKNERV	0.694 ± 0.046
NIKKKKKETKNN	0.676 ± 0.024

Sequence	protein stability index
NIKKNQRKEASK	0.698 ± 0.039
NKGHGAHSRECE	0.65 ± 0.025
NKIKKKRTEPQP	0.66522 ± 7.3e-05
NKKKEKKKNEAK	0.684 ± 0.016
NKKKNKKEEHVE	0.688 ± 0.047
NKKTKNNKGNKQ	0.728 ± 0.063
NKMLCTTEGVAA	0.644 ± 0.038
NKPPGVGHGGVT	0.672 ± 0.025
NKRKSKKRNEIE	0.6701 ± 0.0054
NKSHFGHSCYLR	0.64 ± 0.013
NKTKIKKKKKRG	0.657 ± 0.013
NKYEMRDDTMNI	0.681 ± 0.056
NLGLSGRYAPCK	0.689 ± 0.0072
NLRFLFFSSSRF	0.682 ± 0.017
NLSLYFGGVLVL	0.603 ± 0.027
NMKPPTNKGSNK	0.675 ± 0.054
NMLYRKEGWTKE	0.655 ± 0.036
NMMTSVLEGGVG	0.699 ± 0.16
NMVIRLIEKRKK	0.663 ± 0.021
NNKNNKNKIYKK	0.679 ± 0.0091
NNKRNGRIKRKI	0.738 ± 0.02
NNSCPQGHPDAR	0.7574 ± 0.0065
NNSRTNDVRRRK	0.726 ± 0.018

Sequence	protein stability index
NPCPSVLCSNCD	0.67 ± 0.064
NPLRTQASTTAQ	0.72 ± 0.096
NQHKKGQKKKGI	0.684 ± 0.042
NRGGRKAINENG	0.685 ± 0.036
NRGKDEIMKRDK	0.671 ± 0.066
NRKKIKSIDVRK	0.67 ± 0.07
NRRCAPVHPGPD	0.7217 ± 0.0036
NSFTYWYGGCIL	0.802 ± 0.28
NSSPVRSSCLSA	0.6881 ± 0.0038
NSTERDNGIRKE	0.6686 ± 0.0065
NTKNPRPQDPQQ	0.651 ± 0.013
NTTFISRRLPPR	0.687 ± 0.0089
NVNNNICTYRAI	0.6776 ± 0.0046
NVVFGCFFPVLT	0.684 ± 0.04
NYNGVRRYNGFK	0.574 ± 0.052
PAACPTRTCLYP	0.719 ± 0.045
PALPPPAPLPLS	0.67261 ± 0.00022
PALPPPPLLSSS	0.705 ± 0.012
PALPPPPSPPLL	0.754 ± 0.052
PALQHTVPPPPQ	0.579 ± 0.012
PANGKQNRGKRR	0.645 ± 0.078
PAPCAPLLTHRP	0.6614 ± 0.0025
PAPCPSPPAPAV	0.708 ± 0.029

Sequence	protein stability index
PAPLFFCAPFFF	0.715 ± 0.034
PAPLSIPSTLTT	0.609 ± 0.053
PAPPLPLAPPPL	0.771 ± 0.025
PAPPSHLLLPLL	0.768 ± 0.067
PAPPSPPPHSSP	0.751 ± 0.063
PAPRPAPPSLPP	0.709 ± 0.015
PAPSPPPPRPLP	0.716 ± 0.1
PARRPPPTPSSS	0.631 ± 0.064
PASPPLRALSSL	0.81 ± 0.075
PASQPPTPPPRS	0.675 ± 0.11
PASSTLRPPAHP	0.723 ± 0.18
PAVHLYFIPPTG	0.644 ± 0.038
PAVSRPPLPSVH	0.7 ± 0.089
PCAPHPPPWVVL	0.6058 ± 0.0056
PCDWEGCVAMNV	0.649 ± 0.055
PCFSCPPLFLRT	0.631 ± 0.067
PCGTPHVRPLAT	0.719 ± 0.025
PCLPCVDRGMRG	0.6663 ± 0.00079
PCLTCKARSIWL	0.672 ± 0.033
PCPAPPPASSSP	0.728 ± 0.16
PCPLPVLDASQF	0.7158 ± 0.0053
PCSRVICASEFT	0.701 ± 0.045
